This note sets out measurements from patent US20130344098A1.

The test deals with anti-Fel d1 mAB 6F9. In words: sandwich ELISA: mAB 6F9 coated, Fel d1 protein in doubling dilutions 80-0.16 ng/ml, detected with biotinylated mAB 3E4; Fel d1 (ng/ml) at OD50%. In general terms: ELISA stands for enzyme-linked immunosorbent assay.

As for “natural Fel d1 (from UniProt P30440 18-109)”, the concentration for a half-maximal effect (EC50) is 7.2 ng/mL.

As usually defined, the EC50 is the concentration that produces a half-maximal response. Read a high EC50 as a less potent agent.
